{"source": "the DeepSol protein solubility set", "data": [{"assay": "soluble on expression in E. coli; label from the status in PepcDB or PDB records", "values": [{"sequence": "MAHHHHHHMLRHCTAHRRYRTAWRELLHPLPVRARKMEWLKRDAVEENEEILRRPYYTIKSYALPPAVGRQESIHNSNNIRGGMHSSHSLDLIMRQPRRVKTPEQLQALRDRLRFIGVTGPMPQATSVSTKSYADTYGSRLRPRYPESWDTVPPHQPSRELL", "soluble on expression in E. coli": "soluble"}, {"sequence": "MNSDEVQLIKKTWEIPVATPTDSGAAILTQFFNRFPSNLEKFPFRDVPLEELSGNARFRAHAGRIIRVFDESIQVLGQDGDLEKLDEIWTKIAVSHIPRTVSKESYNQLKGVILDVLTAASSLDESQAATWAKLVDHVYGIIFKAIDDDGNAK", "soluble on expression in E. coli": "soluble"}, {"sequence": "MIKIPQAGRDLETIAVIGAGTIGSAISISLAKAGYHVISTRRRPDLNAGLKAYGITVTSDNVQAVTSADMVILTLKPADLVSEMKKLSQILEGKIVVSMAAAVPIRVIRHILPRSFIVRSMTNIAAEVNAGYTPFCTLEEDEGKISFVSRVLGVFGETERVDEKYMDALTAL", "soluble on expression in E. coli": "not soluble"}, {"sequence": "MAHHHHHHMKKQIKWKAHKGVVLCADWSRMSGMIVTGGEDGVYKVWDPYGCSIFVAAAGEHPITSVRFAADGESFAVGSFMNVRVCDKTGWSHSYERTTEGSAMALDWMPDGTQMILGNGTGALSIAQIVDRKVSWGPYTVTLLDSRRLTVQDVVKDTVQEIELADKVIKLELGCGYLVVCTTTQCCCYPMDRLNAPVQFDLRDPVISIILGPRQFLLADCSQGLQVYSYEGRQISVLRLQVTLKPEIMTTNLLSLSPETVAMRNPADAKRILFFDVSSGKPFDAASVAHHLDIVSVHLSQSGSLHDRKIAFIDRNNDLYFGPVHTQLGFHKLSTMTTSVAWHDSHETLVAIADGHLATWYYPSTIFTDRDLLSLTKTVRDGGHTEFTRNDRITHFHHTRVLVRRGGDGALLTLPVSPYTVMIFQLVTQKNNWDGATRLARFLKDPLLWAVLTALALRAGELNVAEIGYGALSDLAKVRYIHYIKGIPTPEARQAELALFQHRPAEAERILLQAGLVYRCIDMNTRLFKWERALEIAKERKTHLDTVLGRRERYLQEVSQKEMLAPFKDLSGKVKVDWAVIEEKVKQEVIKESERPNAKPYA", "soluble on expression in E. coli": "not soluble"}, {"sequence": "MQRLSGLDASFLYLETSTQLLHVCGVIVLDVSTVPGGYTFAQLKAELGARTEAIPSFRRKLQDSKFNLDHPVWVEDTDFDIDRHCHRVALPAPGGRDELAELCGDIAGIPLDRARPLWEMWVIEGLEDGSVAVMSKMHHAGVDGITGANMMAQLCGLEPDAPRPGPDDSAESAGQASTLDIAVGGLLAVASRPAKLLRIVPQSLTLLPRWIGRARRGAAMPAPFTAPRTSLNGTLTSHRNLAFTQLDLEKVKTVKDAFDVKVNDVVLALCSGALRKYLQDRRELPDKSLVAIVPVSVHGKSDRPGTNQVSGMFTQLGTQIEDPAERLLAIGEHNSTSKEHNETLGASLLQDWSQFAGQAVFGTAMRLYSTLGLAERHPVVHNLVISNVPGPSVPLYFLGALIKAMYPLGPIFHGAGLNVTVMSLNGQLDVGLMSCPELAPHLWDLVDAFPAALDELVEAAGNRS", "soluble on expression in E. coli": "not soluble"}, {"sequence": "MTRSGNTRNGKYMGEDKRRYHTITNILQYNLIPDFFTIFAKYCITFKNMTMEKTFAQISELFDQFSKDASLQVEKGNKAAGTRARKASLELEKLLKRFRKESLEASK", "soluble on expression in E. coli": "not soluble"}, {"sequence": "MMGCMMIYNPKQLANHLKLIRTKHNLTQTELAKKVGVKQSTLSSFENHPETTQLQTLFKILHALEVHCIIQEQVPASHEDNLDDEAW", "soluble on expression in E. coli": "not soluble"}, {"sequence": "TIEARTAQSTPSAPPQKVMCVSMGSTTVRVSWVPPPADSRNGVITQYSVAYEAVDGEDRGRHVVDGISREHSSWDLVGLEKWTEYRVWVRAHTDVGPGPESSPVLVRTDEDVPSGPPRKVE", "soluble on expression in E. coli": "soluble"}, {"sequence": "QRSHVASCSHSLSVIQFNLFYENSDINQFINYLLRHPADLVVMQELTPRVGSLLHMLDDVYPHYHGGQRDVGYPSNLMILSRHPITEVSVYRAPNGQEVIRAVWLPKGQAPITLFAAHPPSPRTSELWHQRNALVRTIETLTALYPEPEVLVVGDFNLSSVSPRFSTLFPSFQTAPVTSWPTNIKGINVPEPMMIGIDHLWLKSEQGQRIICSRESSALPQGSDHRMVTTQIGVHIP", "soluble on expression in E. coli": "not soluble"}, {"sequence": "MGSDKIHHHHHHLCRRLDGLNPNQQALCAENPFSIPFVARGVREAIRECENKFKFERWNCSSRDEVTETRHGKFQDILGKTLRSANKEAAFLNAIMAASIVHSITKGCNTGNLTECGCDSKPGMQRYQAESDPSMSRDQFSWGGCSDNVPHGIRYAKKFLDDWETAQFDKTKNVAHLVRRHNNFVGREAIAQNIRRQCRCHGVSGSCEFKTCWLQMQKFSQVSDLLKKRYDHFAVQVTRKATKRLRRKERTERKIPLRGNEMAYVHRSPSYCEKNLTAGILGTSGRECIHNSYSSESCDLLCCGRGYNTRLEIRQTQCECKFVWCCEVKCKTCTEEVAVHTCK", "soluble on expression in E. coli": "not soluble"}, {"sequence": "MGHHHHHHSHMTSGPGGRSAAAGGRKENHQWYVCNREKLCESLQAVFVQSYLDQGTQIFLNNSIEKSGWLFIQLYHSFVSSVFSLFMSRTSINGLLGRGSMFVFSPDQFQRLLKINPDWKTHRLLDLGAGDGEVTKIMSPHFEEIYATELSETMIWQLQKKKYRVLGINEWQNTGFQYDVISCLNLLDRCDQPLTLLKDIRSVLEPTRGRVILALVLPFHPYVENGGKWEKPSEILEIKGQNWEEQVNSLPEVFRKAGFVIEAFTRLPYLCEGDMYNDYYVLDDAVFVLKPV", "soluble on expression in E. coli": "not soluble"}, {"sequence": "MAHHHHHHMSGYLKVLSPDGRWETRYIEIDDAKLRIWRTKGDKESSAAVVKELDLKCATLREVSEPNTWAVQPEKAEATYFQADGEERKTEWMDTLRHYNSSSSGSEKVTLRDFEKKFVLGKGSYGKVFMVVKKDTDKWYAMKEMSAEKMRQAEIKAPFAERIILEEIDHPFIVHLHYSFQEQGNLYMILDLLAGGELFTYIEQHAPLDEEVVKFYAAEVALALGYLHSRNIIYRDLKPENVVFDRDGHACLTDFGLAKANVHEPNAVTYCGTNEYLAPELLKGVPHGKAVDWWSLGLMMCEMLFNDLPFYDENPMQMQMKILTEDVAFPPHIQITEETKDLIRCLLNKNPERRLQTLEAFKAHKCFSNLDFCLLEARKLKAPITPDPNPAHNFAKEFTSEVIVQNESPSQAVVTLAGYTYDRDLSEQEKSPSHSPTIAEELRQRRASKKRPTNGSDAASPPVTGENRTSNSSPAGVPMKQAAPGPVKKVEHHIPAKVAPQAARKKLTGNKSFDKPTK", "soluble on expression in E. coli": "soluble"}, {"sequence": "MQCNVCEFGCEIDEYSRGRCRTYVCTGDTIIQDPDMGYLGAYPVSIETIPLLHYYPSGKFLQVFGTGCNFQCSGCVARLLASGKSLSSTTLTPSQVVEKALQQDCLGVVSTLNEPAANYYLFRDLAVQAKEKGLLVGCSTNCYFTEETLNKLGQLVDFMNVGIKGYSDRSYISCGVPSSAPVFRNISLLFDMGVHVETSVVYSRGNEADVIKVAEAVSDISPTIPVQVMRFIPFGDAPIELEPSVGEAESLCADLRKYVDYVYLFNSPGTELLNTYCPECGSLLAEREFYGPMGSRPVRPWITYSCDCGKTVPVKGTTAVERFNEEGFMGGYRISRAFGMVHGVLTCLGILDDSRLIDVWREISDSGTLMKVHHMIQQPYAYLDFVRLIAERANMPEKGEELISFIHTRLELVKSLAAENSGHKVYYCMGSPLFALNAGRMENNLVAFSGGLSINKQLQKEGKPGINVSPSFINENNPDTIFISGFLSRPLDEFYTLCRQYGIETDAVKQQRVYEVPPSWDFGNPRWILGLMYIADKLYPGNSGIDLEKEADEFYRQFYGMPYLEHHHHHH", "soluble on expression in E. coli": "not soluble"}, {"sequence": "PKKPPMNGYQKFSQELLSNGELNHLPLKERMVEIGSRWQRISQSQKEHYKKLAEEQQRQYKVHLDLWVKSLSPQDRAAYKEYISNKRK", "soluble on expression in E. coli": "soluble"}, {"sequence": "MGSDKIHHHHHHMETMFDTLLQLPLFQGLCHEDFTSILDKVKLHFIKHKAGETIIKSGNPCTQLCFLLKGEISIVTNAKENIYTVIEQIEAPYLIEPQSLFGMNTNYASSYVAHTEVHTVCISKAFVLSDLFRYDIFRLNYMNIVSNRAQNLYSRLWDEPTLDLKSKIIRFFLSHCEKPQGEKTFKVKMDDLARCLDDTRLNISKTLNELQDNGLIELHRKEILIPDAQKLL", "soluble on expression in E. coli": "soluble"}, {"sequence": "MGSDKIHHHHHHMYLVEVFFTYRQPQKLPISNISYLINQIIEQWRYNGQIIGREIPLFVAVQNNEEGFALRVTCPEQQSLLPTFNNIQVDKALKQAKSAGIFFDSFQIIADDLNSDITYSKEVATWQVLYTTYLQSCSPLHSGDNLLPIPLYKQFKNIPHLSMDIIKWQENWQACDQLQMNGSILEQQALYEISDFNSHLTKHGYYLTQEIEKHTGIPTFYYLYRIGGDDLQSEQQRLCPNCQQKWHLDKPLFNLFHFKCDHCRLVSNLSWHWQ", "soluble on expression in E. coli": "not soluble"}, {"sequence": "MSGEGDTTLKAICYKPGSLQLLDQRKLPLETIYLEIRDASDGWSAIQEMVVRGAPAIAIAAALSLAVEVFNFHGFDGSASDAVAFLENKLDYLVSSRPTAVNLADAALKLKHVIAKALATATEAKSIFKAYIEASEDMLEDDVVSNKAIGNFGLSLLRQQAKNPDKLSVLTHCNTGSLATAGYGTALGVIRALHTQGILERAYCTETRPFNQGSRLTAFELVHEKIPATLIADSAAAALMKDGRVDGVIVGADRVASNGDTANKIGTYSLALCAKHHGIPFYVAAPLTSVDLSLSSGKEIVIEERSPKELMHTHGGLGERIAAPGISVWNPAFDMTPAELIAGIITEKGVITKNGNDTFDISSFAKKITGNSSR", "soluble on expression in E. coli": "soluble"}, {"sequence": "MGSDKIHHHHHHMNLPLQGIKVVELGQLIAGPFAAKILAEFGAEVIKVEPPLTGDPLRKWRLLHNGTSVWWAVQSRNKQSVTLDLRQPQAQEMVRRLIRDADVLVENFRPGTLEGWGLSWEDLHALNPKLIMLRVSGYGQTGPYRDRPGFGVIGEAMGGLRHLSGEVGRTPVRVGVSIGDSLAALHGVIGILLALRHREQNAGEGQQIDVALYESVFNMMESLIPEYSVFNTVREPAGSSLPGIAPTNAYRCNDGKYALIAGNGDSIYRRLMEKIGRPDLANDPQLEHNDGRVRHVARIDAAISTWTAERSLDDVLAALTDARIPAGKIYDAADIASDPHYQARDMLLQSALDDGTPVTVPGIVPKLQDTPGQIRSPAPTLGQHTDAVLQAHGIDAATREEWRRLGII", "soluble on expression in E. coli": "not soluble"}, {"sequence": "MRLTSKGRYAVTAMLDVALNSEAGPVPLADISERQGISLSYLEQLFSRLRKNGLVSSVRGPGGGYLLGKDASSIAVGEVISAVDESVDATRCQGKGGCQGGDKCLTHALWRDLSDRLTGFLNNITLGELVNNQEVLDVSGRQHTHDAPRTRTQDAIDVKLRA", "soluble on expression in E. coli": "soluble"}, {"sequence": "MHHHHHHSSGVDLGTENLYFQSMVPPIPKQDGGEQNGGMQCKPYGAGPTEPAHPVDERLKNLEPKMIELIMNEIMDHGPPVNWEDIAGVEFAKATIKEIVVWPMLRPDIFTGLRGPPKGILLFGPPGTGKTLIGKCIASQSGATFFSISASSLTSKWVGEGEKMVRALFAVARCQQPAVIFIDEIDSLLSQRGDGEHESSRRIKTEFLVQLDGATTSSEDRILVVGATNRPQEIDEAARRRLVKRLYIPLPEASARKQIVINLMSKEQCCLSEEEIEQIVQQSDAFSGADMTQLCREASLGPIRSLQTADIATITPDQVRPIAYIDFENAFRTVRPSVSPKDLELYENWNKTFGCGK", "soluble on expression in E. coli": "soluble"}, {"sequence": "MLHFYQAVAQLMEHIRGAKAHDVRFTQPLADKPPFALIDWLDAQPIFPKFYWQSRDTREEVVALGQVYTFTDPAPAYAILGDEQRVWGGRSFDGHTAKNPRCMSSFFFLPQIELIRRDEQWLLAVNINNEPQRTLTALQKLLVEVPTLRSMTAHVTRVEHTPTAANWHDLVEKVLAGITEKQFKKVVLARKTTLTLDAPLSAAQLLKASHAQNHHSFHFLLALDSRHSFMGSTPERLYLRHGQNLETEALAGTIGRGANATQDMELAHWLTHDSKNLNENQLVVEDIIESLAPHAEQIHTQREAQLVRLRKVQHLKKRIDAQLKSGVNGVQLLGVLQPTAAVAGLPRQAALAFIAENEPFARGWYAGSMGYFSHAQAEFCVAIRSALVVDKQVQLYAGAGIVPGSIAEHEWQELDKKLSTLLSLITDRLPLGVAS", "soluble on expression in E. coli": "not soluble"}]}]}
